{"source": "paper PMC12802937", "about": "(Nucleic Acids Research, 2026)", "binders": {"B1": {"name": "Lge1-CT (Lge1 residues 261–332), intein-chitin binding domain (CBD) tag construct (domain or fragment, budding yeast, UniProt Q02796 261-332, looked up)", "chain": "KNVKKTNNTESECEKAREVFKESDSIDSALEELNLKINSNELELRLLNNQCDKHALNIQLTQEKLDSLLLMQ", "notes": "Lge1, budding yeast, residues 261-332; residues 268–331 resolved in the electron density; the intein-CBD tag is named on the protein in the pull-down; also called intein-CBD-fused Lge1-CT; intein-CBD-tagged Lge1-CT; source: E. coli BL21 Rosetta (DE3): cleared cell extract on chitin resin (pull-down); purified (chitin, heparin, gel filtration) for ITC and SPR; co-purified with Bre1-LR for the …"}}, "settings_in_all_cases": "both partners purified", "key": {"Bre1-LR K534E": {"biological_target": "T1, Bre1-LR K534E (budding yeast, UniProt Q07457 227-700, K534E)", "T1 construct": "source: E. coli BL21 Rosetta (DE3), purified (Ni-NTA, heparin, gel filtration)", "T1 sequence (looked up)": "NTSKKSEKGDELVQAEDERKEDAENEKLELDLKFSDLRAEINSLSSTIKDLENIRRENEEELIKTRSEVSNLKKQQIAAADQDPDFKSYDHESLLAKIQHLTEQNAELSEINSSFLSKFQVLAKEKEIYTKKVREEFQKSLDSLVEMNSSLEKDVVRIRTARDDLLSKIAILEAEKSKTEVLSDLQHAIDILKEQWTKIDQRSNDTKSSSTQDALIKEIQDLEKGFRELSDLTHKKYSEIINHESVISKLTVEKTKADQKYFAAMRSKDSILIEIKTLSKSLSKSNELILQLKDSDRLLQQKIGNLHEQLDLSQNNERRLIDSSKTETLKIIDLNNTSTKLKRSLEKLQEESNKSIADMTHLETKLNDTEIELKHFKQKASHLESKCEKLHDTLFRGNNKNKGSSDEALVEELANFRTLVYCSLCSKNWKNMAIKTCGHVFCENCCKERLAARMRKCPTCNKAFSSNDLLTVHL", "test": "ITC; Lge1-CT (50–60 μM) injected into Bre1-LR (15 μM); 25°C, 20 mM TRIS (pH 7.5), 200 mM sodium chloride"}, "[1]": {"biological_target": "T2, Bre1-LR (Bre1 residues 227–700, LBD and RING domains), 6× histidine tag (budding yeast, UniProt Q07457 227-700)", "T2 construct": "two Bre1 polypeptides form the dimeric coiled-coils of the LBD in the crystal structure; also called WT; source: E. coli BL21 Rosetta (DE3), purified (Ni-NTA, heparin, gel filtration)", "T2 sequence (looked up)": "T1 sequence (looked up) with E308K", "test": "ITC; Lge1-CT (50–60 μM) injected into Bre1-LR (15 μM); 25°C, 20 mM TRIS (pH 7.5), 200 mM sodium chloride"}, "Bre1-LR K379A": {"biological_target": "T3, Bre1-LR K379A (budding yeast, UniProt Q07457 227-700, K379A)", "T3 construct": "source: E. coli BL21 Rosetta (DE3), purified (Ni-NTA, heparin, gel filtration)", "T3 sequence (looked up)": "T1 sequence (looked up) with K153A, E308K", "test": "SPR; Lge1-CT immobilised on a CM5 chip, Bre1-LR flown over; Biacore 8K, 25°C, 20 mM HEPES (pH 7.5), 200 mM sodium chloride, 0.02% Tween 20"}, "Bre1-LR K352E": {"biological_target": "T4, Bre1-LR K352E (budding yeast, UniProt Q07457 227-700, K352E)", "T4 construct": "source: E. coli BL21 Rosetta (DE3), purified (Ni-NTA, heparin, gel filtration)", "T4 sequence (looked up)": "T1 sequence (looked up) with K126E, E308K", "test": "SPR; Lge1-CT immobilised on a CM5 chip, Bre1-LR flown over; Biacore 8K, 25°C, 20 mM HEPES (pH 7.5), 200 mM sodium chloride, 0.02% Tween 20"}, "[2]": {"biological_target": "T2, Bre1-LR (Bre1 residues 227–700, LBD and …)", "test": "SPR; Lge1-CT immobilised on a CM5 chip, Bre1-LR flown over; Biacore 8K, 25°C, 20 mM HEPES (pH 7.5), 200 mM sodium chloride, 0.02% Tween 20"}}, "note": "Positions count from the first letter of the chain named.", "data": [{"binder": "B1", "values": [{"measurement": "Kd", "setting": "Bre1-LR K534E", "result": "36.9 ± 14.5", "unit": "nM"}, {"measurement": "dH", "setting": "Bre1-LR K534E", "result": "-33.9 ± 2.1", "unit": "kcal/mol"}, {"measurement": "stoichiometry N", "setting": "Bre1-LR K534E", "result": "0.469 ± 0.008"}, {"measurement": "Kd", "setting": "[1]", "result": "24.5 ± 4.5", "unit": "nM"}, {"measurement": "dH", "setting": "[1]", "result": "-50.5 ± 1", "unit": "kcal/mol"}, {"measurement": "stoichiometry N", "setting": "[1]", "result": "0.396 ± 0.003"}, {"measurement": "Kd", "setting": "Bre1-LR K379A", "result": 34, "unit": "nM"}, {"measurement": "Kd", "setting": "Bre1-LR K352E", "result": 76.6, "unit": "nM"}, {"measurement": "Kd", "setting": "[2]", "result": 17.5, "unit": "nM"}]}]}
